IntAct's records for PubMed 31515488

B1: THAP domain-containing protein 8 (Homo sapiens), Q8NA92 (parent)
chain: MPKYCRAPNCSNTAGRLGADNRPVSFYKFPLKDGPRLQAWLQHMGCEHWVPSCHQHLCSEHFTPSCFQWRWGVRYLRPDAVPSIFSRGPPAKSQRRTRSTQKPVSPPPPLQKNTPLPQSPAIPVSGPVRLVVLGPTSGSPKTVATMLLTPLAPAPTPERSQPEVPAQQAQTGLGPVLGALQRRVRRLQRCQERHQAQLQALERLAQQLHGESLLARARRGLQRLTTAQTLGPEESQTFTIICGGPDIAMVLAQDPAPATVDAKPELLDTRIPSA
B2: EF-hand domain-containing protein 1 (Homo sapiens), Q5JVL4 (parent)
chain: MVSNPVHGLPFLPGTSFKDSTKTAFHRSQTLSYRNGYAIVRRPTVGIGGDRLQFNQLSQAELDELASKAPVLTYGQPKQAPPADFIPAHVAFDKKVLKFDAYFQEDVPMSTEEQYRIRQVNIYYYLEDDSMSVIEPVVENSGILQGKLIKRQRLAKNDRGDHYHWKDLNRGINITIYGKTFRVVDCDQFTQVFLESQGIELNPPEKMALDPYTELRKQPLRKYVTPSDFDQLKQFLTFDKQVLRFYAIWDDTDSMYGECRTYIIHYYLMDDTVEIREVHERNDGRDPFPLLMNRQRVPKVLVENAKNFPQCVLEISDQEVLEWYTAKDFIVGKSLTILGRTFFIYDCDPFTRRYYKEKFGITDLPRIDVSKREPPPVKQELPPYNGFGLVEDSAQNCFALIPKAPKKDVIKMLVNDNKVLRYLAVLESPIPEDKDRRFVFSYFLATDMISIFEPPVRNSGIIGGKYLGRTKVVKPYSTVDNPVYYGPSDFFIGAVIEVFGHRFIILDTDEYVLKYMESNAAQYSPEALASIQNHVRKREAPAPEAESKQTEKDPGVQELEALIDTIQKQLKDHSCKDNIREAFQIYDKEASGYVDRDMFFKICESLNVPVDDSLVKELIRMCSHGEGKINYYNFVRAFSN
partner: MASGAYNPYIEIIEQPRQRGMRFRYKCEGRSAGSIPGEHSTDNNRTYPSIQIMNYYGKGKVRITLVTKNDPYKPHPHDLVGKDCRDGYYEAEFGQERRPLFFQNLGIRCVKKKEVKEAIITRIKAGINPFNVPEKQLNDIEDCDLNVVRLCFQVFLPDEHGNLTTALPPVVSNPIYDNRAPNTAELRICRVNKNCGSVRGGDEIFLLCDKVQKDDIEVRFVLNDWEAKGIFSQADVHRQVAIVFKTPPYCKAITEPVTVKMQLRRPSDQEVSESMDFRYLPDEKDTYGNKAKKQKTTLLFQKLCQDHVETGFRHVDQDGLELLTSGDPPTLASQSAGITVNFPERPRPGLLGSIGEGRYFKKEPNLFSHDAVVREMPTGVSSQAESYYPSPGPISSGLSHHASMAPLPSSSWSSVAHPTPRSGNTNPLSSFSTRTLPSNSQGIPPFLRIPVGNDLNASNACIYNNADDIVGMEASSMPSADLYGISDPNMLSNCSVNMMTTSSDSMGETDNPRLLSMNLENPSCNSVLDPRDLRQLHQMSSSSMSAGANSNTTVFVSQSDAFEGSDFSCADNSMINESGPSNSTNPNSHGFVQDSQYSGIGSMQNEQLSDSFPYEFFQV
B3: Tuftelin-interacting protein 11 (Homo sapiens), Q9UBB9 (parent)
chain: MSLSHLYRDGEGRIDDDDDERENFEITDWDLQNEFNPNRQRHWQTKEEATYGVWAERDSDDERPSFGGKRARDYSAPVNFISAGLKKGAAEEAELEDSDDEEKPVKQDDFPKDFGPRKLKTGGNFKPSQKGFAGGTKSFMDFGSWERHTKGIGQKLLQKMGYVPGRGLGKNAQGIINPIEAKQRKGKGAVGAYGSERTTQSMQDFPVVDSEEEAEEEFQKELSQWRKDPSGSKKKPKYSYKTVEELKAKGRISKKLTAPQKELSQVKVIDMTGREQKVYYSYSQISHKHNVPDDGLPLQSQQLPQSGKEAKAPGFALPELEHNLQLLIDLTEQEIIQNDRQLQYERDMVVNLFHELEKMTEVLDHEERVISNLSKVLEMVEECERRMQPDCSNPLTLDECARIFETLQDKYYEEYRMSDRVDLAVAIVYPLMKEYFKEWDPLKDCTYGTEIISKWKSLLENDQLLSHGGQDLSADAFHRLIWEVWMPFVRNIVTQWQPRNCDPMVDFLDSWVHIIPVWILDNILDQLIFPKLQKEVENWNPLTDTVPIHSWIHPWLPLMQARLEPLYSPIRSKLSSALQKWHPSDSSAKLILQPWKDVFTPGSWEAFMVKNIVPKLGMCLGELVINPHQQHMDAFYWVIDWEGMISVSSLVGLLEKHFFPKWLQVLCSWLSNSPNYEEITKWYLGWKSMFSDQVLAHPSVKDKFNEALDIMNRAVSSNVGAYMQPGARENIAYLTHTERRKDFQYEAMQERREAENMAQRGIGVAASSVPMNFKDLIETKAEEHNIVFMPVIGKRHEGKQLYTFGRIVIYIDRGVVFVQGEKTWVPTSLQSLIDMAK
partner: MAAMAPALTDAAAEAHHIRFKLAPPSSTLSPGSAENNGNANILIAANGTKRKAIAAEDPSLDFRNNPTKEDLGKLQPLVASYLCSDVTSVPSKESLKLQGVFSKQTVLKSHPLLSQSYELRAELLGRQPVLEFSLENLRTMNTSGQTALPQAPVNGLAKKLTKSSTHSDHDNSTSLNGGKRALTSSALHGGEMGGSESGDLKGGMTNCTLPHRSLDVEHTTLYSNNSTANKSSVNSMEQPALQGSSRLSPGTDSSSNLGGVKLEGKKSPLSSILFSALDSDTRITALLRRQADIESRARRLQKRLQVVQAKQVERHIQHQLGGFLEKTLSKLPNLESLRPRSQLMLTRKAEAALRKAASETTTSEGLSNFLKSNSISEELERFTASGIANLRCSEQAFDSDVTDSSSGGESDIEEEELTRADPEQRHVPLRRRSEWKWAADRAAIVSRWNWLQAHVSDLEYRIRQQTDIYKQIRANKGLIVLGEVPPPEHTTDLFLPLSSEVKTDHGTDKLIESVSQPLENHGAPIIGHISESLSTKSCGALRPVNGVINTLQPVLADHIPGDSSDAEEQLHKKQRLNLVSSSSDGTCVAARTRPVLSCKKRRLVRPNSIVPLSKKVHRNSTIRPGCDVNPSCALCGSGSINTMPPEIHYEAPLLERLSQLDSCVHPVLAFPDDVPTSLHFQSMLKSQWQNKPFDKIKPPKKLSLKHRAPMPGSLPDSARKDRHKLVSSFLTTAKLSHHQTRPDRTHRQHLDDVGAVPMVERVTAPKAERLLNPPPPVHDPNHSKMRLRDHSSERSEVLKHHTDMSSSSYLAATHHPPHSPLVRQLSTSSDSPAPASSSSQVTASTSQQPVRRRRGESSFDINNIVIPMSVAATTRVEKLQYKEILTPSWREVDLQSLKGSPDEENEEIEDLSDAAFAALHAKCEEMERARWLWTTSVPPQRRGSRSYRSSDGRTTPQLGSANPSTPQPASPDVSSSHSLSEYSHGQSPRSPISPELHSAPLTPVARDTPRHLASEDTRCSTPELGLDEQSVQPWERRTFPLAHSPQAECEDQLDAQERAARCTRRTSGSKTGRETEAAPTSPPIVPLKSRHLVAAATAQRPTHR

Variants of: B1
Details: with tfp11_human TFIP11, Q9UBB9
R189W was tested, and the “effect of a mutation on the interaction” value was “with no effect”.

Variants of: B2
Details: with rel_human REL
R159W was tested, and the “effect of a mutation on the interaction” value was “with no effect”.
In the case of F229L, the “effect of a mutation on the interaction” value is reported as “with no effect”.
With Y102C the “effect of a mutation on the interaction” value was “with no effect”.

Variants of: B3
Details: with kanl1_human KANSL1, Q7Z3B3
In the case of S688L, the “effect of a mutation on the interaction” value is reported as “with no effect”.
For R8Q, the “effect of a mutation on the interaction” value was “with no effect”.
